Earlier results, collected in patent US20050026224A1, “Methods and compositions for modulating G-protein coupled receptor 54” (priority 2003, published 2005).

What was measured:
[1] = tested on: GPR54 transfected CHO cells; details: GPR54 transfected CHO cells in vitro; Ohtaki et al. 2001
[2] = tested on: cell motility; details: Hori et al. 2001
[3] = tested on: GPR54-transfected B16-BL6 melanomas; details: GPR54-transfected B16-BL6 melanomas in vivo; Ohtaki et al. 2001
[4] = tested on: cell motility; details: Hori et al. 2001; remark: listed apart in the source
[5] = tested on: GPR54 transfected CHO cells; details: GPR54 transfected CHO cells in vitro; Ohtaki et al. 2001; remark: listed apart in the source

B1: Metastin: peptide ligand agonist for GPR54; protein product of the Kiss-1 gene (SEQ ID NO: 4) (protein, listed as Homo sapiens)
chain: MNSLVSWQLLLFLCATHFGEPLEKVASVGNSRPTGQQLESLGLLAPGEQSLPCTERKPAATARLSRRGTSLSPPPESSGSRQQPGLSAPHSRQIPAPQGAVLVQREKDLPNYNWNSFGLRFGKREAAPGNHGRSAGRGWGAGAGQ
invasion [1]: inhibits
cell motility in a chemotaxis assay [2]: suppress cell motility
pulmonary metastasis [3]: attenuates pulmonary metastasis
cell motility in a wound healing assay [4]: suppress cell motility
chemotaxis [5]: inhibits chemotaxis
